The values below come from patent US11708423B2, “Chimeric engulfment receptor molecules and methods of use” (CERO THERAPEUTICS, INC., priority 2017, dated 2023).

The test system of experiment [1] is H1975 lung adenocarcinoma cells. The experiment in a line: LDH assay, H1975 cells, 48 hours co-culture with 1 μM Osimeritinib. In kind it is cell-based. As to conditions: E:T 1:1, 48 hours, CD4+ T cells. An excerpt:
CER30 comprises a Tim4 binding domain, Tim4 transmembrane domain, and an engulfment signaling domain comprising a primary engulfment signaling domain comprising a TRAF2 signaling domain. CER30 has a polypeptide sequence as set forth in SEQ ID NO:96. CER110 has a polypeptide sequence of SEQ ID NO:125 and comprises a Tim4 binding domain, Tim4 transmembrane domain, and an engulfment signaling domain comprising a primary engulfment signaling domain comprising a TRAF6 signaling domain and a secondary engulfment signaling domain comprising a DAP12 signaling domain. CER112 has a polypeptide sequence of SEQ ID NO:128 and comprises a Tim4 binding domain, Tim4 transmembrane domain, and an engulfment signaling domain comprising a primary engulfment signaling domain comprising a TRAF6 signaling domain and a secondary engulfment signaling domain comprising a NFAM1 signaling domain. CER127 has a polypeptide sequence of SEQ ID NO:175 and comprises a Tim4 binding domain, Tim4 transmembrane domain, and an engulfment signaling domain comprising a primary engulfment signaling domain comprising a TRAF2 signaling domain and a secondary engulfment signaling domain comprising a TLR2 signaling domain. H1975 cells are more resistant to EGFR inhibitors, so Osimeritinib was used at slightly higher concentration. H1975 lung adenocarcinoma cells harboring an EGFR mutation were co-cultured with CER-expressing or mock-transduced (vector only) CD4+ T cells with 1 μM of Osimeritinib. After 48 hours of co-culture at a 1:1 effector:target cell ratio, T cells were washed away, and the number of viable H1975 cells was quantified using a calorimetric LDH assay (FIG. 57). Cell viability experiments were performed in triplicate and presented as % of control.

The test system of a further experiment is SCC152 cells. Nature of the experiment: Phagocytic activity of tandem expression cassette transduced CD8+ T cells. It is filed as cell-based, human. How it is done:
Phagocytic activity of tandem expression cassette transduced CD8+ T cells was detected by co-culturing tandem expression cassette transduced CD8+ T cells with SCC152 cells for 6 hours at a 1:1 ratio. Phagocytic events were visualized and quantified using KEYENCE BZ-X710 fluorescence microscope, 20X objective and hybrid capture software.

B1: CER120: Tim4 binding and transmembrane domains, TLR1 primary and DAP12 secondary signaling domains; SEQ ID NO:147 (protein)
chain: MSKGLLLLWLVTELWWLYLTPAASEDTIIGFLGQPVTLPCHYLSWSQSRNSMCWGKGSCPNSKCNAELLRTDGTRIISRKSTKYTLLGKVQFGEVSLTISNTNRGDSGVYCCRIEVPGWFNDVKKNVRLELRRATTTKKPTTTTRPTTTPYVTTTTPELLPTTVMTTSVLPTTTPPQTLATTAFSTAVTTCPSTTPGSFSQETTKGSAFTTESETLPASNHSQRSMMTISTDIAVLRPTGSNPGILPSTSQLTTQKTTLTTSESLQKTTKSHQINSRQTILIIACCVGFVLMVLLFLAFLSYLDLPWYLRMVCQWTQTRRRARNIPLEELQRNLQFHAFISYSGHDSFWVKNELLPNLEKEGMQICLHERNFVPGKSIVENIITCIEKSYKSIFVLSPNFVQSEWCHYELYFAHHNLFHEGSNSLILILLEPIPQYSIPSSYHKLKSLMARRTYLEWPKEKSKRGLFWANLRAAINIKLTEQAKKYFLGRLVPRGRGAAEAATRKQRITETESPYQELQGQRSDVYSDLNTQRPYYK
modifications: CER120 protein
Take B1: the “killing of H1975 cells (LDH)” value in experiment [1] was “synergistic killing of H1975 lung adenocarcinoma cells upon EGFR inhibition”.

B2: CER108: Tim4 binding and transmembrane domains, DAP12 primary and TLR8 secondary signaling domains; SEQ ID NO:137 (protein)
chain: MSKGLLLLWLVTELWWLYLTPAASEDTIIGFLGQPVTLPCHYLSWSQSRNSMCWGKGSCPNSKCNAELLRTDGTRIISRKSTKYTLLGKVQFGEVSLTISNTNRGDSGVYCCRIEVPGWFNDVKKNVRLELRRATTTKKPTTTTRPTTTPYVTTTTPELLPTTVMTTSVLPTTTPPQTLATTAFSTAVTTCPSTTPGSFSQETTKGSAFTTESETLPASNHSQRSMMTISTDIAVLRPTGSNPGILPSTSQLTTQKTTLTTSESLQKTTKSHQINSRQTILIIACCVGFVLMVLLFLAFLYFLGRLVPRGRGAAEAATRKQRITETESPYQELQGQRSDVYSDLNTQRPYYKHHLFYWDVWFIYNVCLAKVKGYRSLSTSQTFYDAYISYDTKDASVTDWVINELRYHLEESRDKNVLLCLEERDWDPGLAIIDNLMQSINQSKKTVFVLTKKYAKSWNFKTAFYLALQRLMDENMDVIIFILLEPVLQHSQYLRLRQRICKSSILQWPDNPKAEGLFWQTLRNVVLTENDSRYNNMYVDSIKQY
modifications: CER108 protein
Take B2: in experiment [1], the “killing of H1975 cells (LDH)” value is “synergistic killing of H1975 lung adenocarcinoma cells upon EGFR inhibition”.

B3: CER112: Tim4 binding and transmembrane domains, truncated Traf6 primary and NFAM1 secondary signaling domains; SEQ ID NO:128 (protein)
chain: MSKGLLLLWLVTELWWLYLTPAASEDTIIGFLGQPVTLPCHYLSWSQSRNSMCWGKGSCPNSKCNAELLRTDGTRIISRKSTKYTLLGKVQFGEVSLTISNTNRGDSGVYCCRIEVPGWFNDVKKNVRLELRRATTTKKPTTTTRPTTTPYVTTTTPELLPTTVMTTSVLPTTTPPQTLATTAFSTAVTTCPSTTPGSFSQETTKGSAFTTESETLPASNHSQRSMMTISTDIAVLRPTGSNPGILPSTSQLTTQKTTLTTSESLQKTTKSHQINSRQTILIIACCVGFVLMVLLFLAFLMSLLNCENSCGSSQSESDCCVAMASSCSAVTKDDSVGGTASTGNLSSSFMEEIQGYDVEFDPPLESKYECPICLMALREAVQTPCGHRFCKACIIKSIRDAGHKCPVDNEILLENQLFPDNFAKREILSLMVKCPNEGCLHKMELRHLEDHQAHCEFALMDCPQCQRPFQKFHINIHILKDCPRRQVSCDNCAASMAFEDKEIHDQNCPLANVICEYCNTILIREQMPNHYDLDCPTAPIPCTFSTFGCHEKMQRNHLARHLQENTQSHMRMLALWNKKRMRGPGKDPTRKCPDPRSASSPKQHPSESVYTALQRRETEVYACIENEDGSSPTAKQSPLSQERPHRFEDDGELNLVYENL
modifications: CER112 chimeric engulfment receptor
With B3, the “killing of H1975 cells (LDH)” value in experiment [1] is reported as “synergistic killing of H1975 lung adenocarcinoma cells upon EGFR inhibition”.

B4: CER110: Tim4 binding and transmembrane domains, truncated Traf6 primary and DAP12 secondary signaling domains; SEQ ID NO:125 (protein)
chain: MSKGLLLLWLVTELWWLYLTPAASEDTIIGFLGQPVTLPCHYLSWSQSRNSMCWGKGSCPNSKCNAELLRTDGTRIISRKSTKYTLLGKVQFGEVSLTISNTNRGDSGVYCCRIEVPGWFNDVKKNVRLELRRATTTKKPTTTTRPTTTPYVTTTTPELLPTTVMTTSVLPTTTPPQTLATTAFSTAVTTCPSTTPGSFSQETTKGSAFTTESETLPASNHSQRSMMTISTDIAVLRPTGSNPGILPSTSQLTTQKTTLTTSESLQKTTKSHQINSRQTILIIACCVGFVLMVLLFLAFLMSLLNCENSCGSSQSESDCCVAMASSCSAVTKDDSVGGTASTGNLSSSFMEEIQGYDVEFDPPLESKYECPICLMALREAVQTPCGHRFCKACIIKSIRDAGHKCPVDNEILLENQLFPDNFAKREILSLMVKCPNEGCLHKMELRHLEDHQAHCEFALMDCPQCQRPFQKFHINIHILKDCPRRQVSCDNCAASMAFEDKEIHDQNCPLANVICEYCNTILIREQMPNHYDLDCPTAPIPCTFSTFGCHEKMQRNHLARHLQENTQSHMRMLAYFLGRLVPRGRGAAEAATRKQRITETESPYQELQGQRSDVYSDLNTQRPYYK
modifications: CER110 chimeric engulfment receptor
For B4, in experiment [1], the “killing of H1975 cells (LDH)” value is “synergistic killing of H1975 lung adenocarcinoma cells upon EGFR inhibition”.

B5: CER29−HPV16 E7 TCR: tandem expression cassette: CER29, T2A peptide, HPV16 E7 specific TCR; SEQ ID NO:169 (protein)
chain: MSKGLLLLWLVTELWWLYLTPAASEDTIIGFLGQPVTLPCHYLSWSQSRNSMCWGKGSCPNSKCNAELLRTDGTRIISRKSTKYTLLGKVQFGEVSLTISNTNRGDSGVYCCRIEVPGWFNDVKKNVRLELRRATTTKKPTTTTRPTTTPYVTTTTPELLPTTVMTTSVLPTTTPPQTLATTAFSTAVTTCPSTTPGSFSQETTKGSAFTTESETLPASNHSQRSMMTISTDIAVLRPTGSNPGILPSTSQLTTQKTTLTTSESLQKTTKSHQINSRQTILIIACCVGFVLMVLLFLAFLMSLLNCENSCGSSQSESDCCVAMASSCSAVTKDDSVGGTASTGNLSSSFMEEIQGYDVEFDPPLESKYECPICLMALREAVQTPCGHRFCKACIIKSIRDAGHKCPVDNEILLENQLFPDNFAKREILSLMVKCPNEGCLHKMELRHLEDHQAHCEFALMDCPQCQRPFQKFHINIHILKDCPRRQVSCDNCAASMAFEDKEIHDQNCPLANVICEYCNTILIREQMPNHYDLDCPTAPIPCTFSTFGCHEKMQRNHLARHLQENTQSHMRMLALEGGGEGRGSLLTCGDVEENPGPMAPGLLCWALLCLLGAGLVDAGVTQSPTHLIKTRGQQVTLRCSPKSGHDTVSWYQQALGQGPQFIFQYYEEEERQRGNFPDRFSGHQFPNYSSELNVNALLLGDSALYLCASSLGWRGGRYNEQFFGPGTRLTVLEDLRNVTPPKVSLFEPSKAEIANKQKATLVCLARGFFPDHVELSWWVNGKEVHSGVCTDPQAYKESNYSYCLSSRLRVSATFWHNPRNHFRCQVQFHGLSEEDKWPEGSPKPVTQNISAEAWGRADCGITSASYQQGVLSATILYEILLGKATLYAVLVSTLVVMAMVKRKNSRAKRSGSGATNFSLLKQAGDVEENPGPMWGVFLLYVSMKMGGTTGQNIDQPTEMTATEGAIVQINCTYQTSGFNGLFWYQQHAGEAPTFLSYNVLDGLEEKGRFSSFLSRSKGYSYLLLKELQMKDSASYLCASVDGNNRLAFGKGNQVVVIPNIQNPEPAVYQLKDPRSQDSTLCLFTDFDSQINVPKTMESGTFITDKCVLDMKAMDSKSNGAIAWSNQTSFTCQDIFKETNATYPSSDVPCDATLTEKSFETDMNLNFQNLLVIVLRILLLKVAGFNLLMTLRLWSS
modifications: CER29_T2A_HPV16_E7_TCR tandem cassette
B5: the “phagocytosis of SCC152 cells” value with SCC152 cells (CD8+ T cells, 6 hours, 1:1 ratio) was “capable of phagocytosing SCC152 cells”. Besides, the “dependence of engulfment of SCC152 cells on Racl” value in the experiment with SCC152 cells (Racl inhibitor NSC23766 (50 μM), data not shown) was “Racl-dependent manner”.
